This assay addresses Mouse IMPαΔIBB (residues 70–529) (mouse, UniProt P52293 70-529). The experiment in a line: crystal structure; complex of IMPαΔIBB and Prp20 NLS (GST tag removed by thrombin) in 20 mM Tris pH 7.8, 125 mM NaCl, 20 mg/mL; crystals in 500 mM sodium citrate pH 6–8, 10 mM DTT; 2.1 Å. The following applies: both partners purified.

B1: Prp20 (S. cerevisiae RanGEF) NLS (residues 3–23) (peptide)
chain: KRTVATNGDASGAHRAKKMSK
notes: Prp20 (RanGEF), S. cerevisiae, bipartite NLS, residues 3-23; Only KR4 and RAKKMSK23 are in the final model; also called Prp20 NLS; Prp20NLS
On to B1, for which the binding result was “binds”.
